Test results as given in paper doi:10.1101/2022.10.27.514035, “Membrane curvature-generating proteins crucial for autophagosome formation” (bioRxiv, 2022).

Molecular target: T1, S. cerevisiae Atg40, SBP-tagged (S. cerevisiae, UniProt Q99325 1-256)
T1 construct: Atg40, ERphagy receptor of Saccharomyces cerevisiae; 'SBP-tagged full-length sjRop1, scAtg40': full-length is read as holding for both; also called scAtg40; not shown: SBP, C-terminal, kept
T1 sequence (looked up): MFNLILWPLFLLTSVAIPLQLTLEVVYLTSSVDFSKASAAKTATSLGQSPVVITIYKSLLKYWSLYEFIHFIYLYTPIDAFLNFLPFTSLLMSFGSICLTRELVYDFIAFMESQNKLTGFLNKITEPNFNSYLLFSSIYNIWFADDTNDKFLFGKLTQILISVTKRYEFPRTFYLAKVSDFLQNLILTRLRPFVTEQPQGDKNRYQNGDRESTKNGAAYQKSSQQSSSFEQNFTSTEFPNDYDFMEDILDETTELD
Test: pull-down; SBP-tagged protein held on streptavidin beads, incubated with purified Atg8 for 1 h at 4 °C in 25 mM HEPES/KOH pH 7.4, 150 mM NaCl, 0.05% DDM; eluate on SDS-PAGE, Coomassie blue
Settings: both partners purified

binding result: binds
B1: S. cerevisiae Atg8, His10-tagged (natural protein, UniProt P38182 1-117, looked up)
chain: MKSTFKSEYPFEKRKAESERIADRFKNRIPVICEKAEKSDIPEIDKRKYLVPADLTVGQFVYVIRKRIMLPPEKAIFIFVNDTLPPTAALMSAIYQEHKDKDGFLYVTYSGENTFGR
notes: Atg8, ubiquitin-like autophagy protein of Saccharomyces cerevisiae; also called scAtg8; source: E. coli, purified (Ni-NTA, SEC on Superdex 75)
